Target: T1, LeuO (rLeuO) (Vibrio vulnificus MO6-24/O?) (UniProt A0A087INQ4)
T1 sequence: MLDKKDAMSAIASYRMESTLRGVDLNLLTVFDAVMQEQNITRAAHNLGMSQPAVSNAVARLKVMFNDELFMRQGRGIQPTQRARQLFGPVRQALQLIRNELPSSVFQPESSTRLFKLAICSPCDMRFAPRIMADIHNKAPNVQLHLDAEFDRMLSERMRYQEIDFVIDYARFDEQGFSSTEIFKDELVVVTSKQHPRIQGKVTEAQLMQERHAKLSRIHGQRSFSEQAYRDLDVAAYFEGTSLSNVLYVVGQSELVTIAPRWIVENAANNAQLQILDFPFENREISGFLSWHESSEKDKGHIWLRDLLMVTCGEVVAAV
Assay: EMSA
Settings: 10 mM Tris-HCl pH 7.4, 10 mM KCl, 1 mM EDTA, 0.1 mM DTT, 50 ug/ml BSA, 5% glycerol, 1 ug poly(dI-dC), 10 ng probe in 20 ul, 30 min at 37 C; 6% neutral …

## GAGTTTGACGCTAAAAAATAGTGATGTGCAGCAAAAATAAGTAAAAGTTTACGCTGATAGGCTCGAAAAGGCTTGTCAGCGTTTTTTTTGGGAGCTAAGTTAGAGCTCGATGGCTGCCAGCCCTTTTAAGATAAGGCTTGGCGCTAATTTTTAGTATTAATGGAACGAAAGTCATCTAAAAAAATAATCACAGATGGCACAAAGGGGAATCACAGTGAACAAAACTCAACTAGTAGAATCAATCGCTGCAAACGCAGAT (double strand) [vhuB upstream region]
  binding: binds
